Residue numbers refer to the chain shown, from its start. In names and notes the source's numbering stands.
B1: N1036A: ZRANB3 HNH active site mutant (protein, UniProt Q5FWF4 1-1079, looked up, variant N1036A)
DNA annealing helicase and …: MPRVHNIKKSLTPHISCVTNESDNLLDFLPDRLRAKLLPFQKDGIIFALKRNGRCMVADEMGLGKTIQAIGITYFYKEEWPLLIVVPSSLRYPWTEEIEKWIPELSPEEINVIQNKTDVRRMSTSKVTVLGYGLLTADAKTLIDALNNQNFKVVIVDESHYMKSRNATRSRILLPIVQKARRAILLTGTPALGRPEELFMQIEALFPQKFGRWTDYAKRYCNAHIRYFGKRPQWDCRGASNLNELHQLLSDIMIRRLKTEVLTQLPPKVRQRIPFDLPSAAAKELNTSFEEWEKIMRTPNSGAMETVMGLITRMFKQTAIAKAGAVKDYIKMMLQNDSLKFLVFAHHLSMLQACTEAVIENKTRYIRIDGSVSSSERIHLVNQFQKDPDTRVAILSIQAAGQGLTFTAASHVVFAELYWDPGHIKQAEDRAHRIGQCSSVNIHYLIANGTLDTLMWGMLNRKAQVTGSTLNGRKEKIQAEEGDKEKWDFLQFAEAWTPNDSSEELRKEALFTHFEKEKQHDIRSFFVPQPKKRQLMTSCDESKRFREENTVVSSDPTKTAARDIIDYESDVEPETKRLKLAASEDHCSPSEETPSQSKQIRTPLVESVQEAKAQLTTPAFPVEGWQCSLCTYINNSELPYCEMCETPQGSAVMQIDSLNHIQDKNEKDDSQKDTSKKVQTISDCEKQALAQSEPGQLADSKEETPKIEKEDGLTSQPGNEQWKSSDTLPVYDTLMFCASRNTDRIHIYTKDGKQMSCNFIPLDIKLDLWEDLPASFQLKQYRSLILRFVREWSSLTAMKQRIIRKSGQLFCSPILALEEITKQQTKQNCTKRYITKEDVAVASMDKVKNVGGHVRLITKESRPRDPFTKKLLEDGACVPFLNPYTVQADLTVKPSTSKGYLQAVDNEGNPLCLRCQQPTCQTKQACKANSWDSRFCSLKCQEEFWIRSNNSYLRAKVFETEHGVCQLCNVNAQELFLRLRDAPKSQRKNLLYATWTSKLPLEQLNEMIRNPGEGHFWQVDHIKPVYGGGGQCSLDALQTLCTVCHKERTARQAKERSQVRRQSLASKHGSDITRFLVKK
B2: K998A: ZRANB3 basic residues HNH mutant (protein, UniProt Q5FWF4 1-1079, looked up, variant K998A)
DNA annealing helicase and …: B1 DNA annealing helicase and … with K998A, A1036N
B3: R947Q: cancer associated ZRANB3 mutant (protein, UniProt Q5FWF4 1-1079, looked up, variant R947Q)
DNA annealing helicase and …: B1 DNA annealing helicase and … with R947Q, A1036N
B4: R987A: ZRANB3 basic residues HNH mutant (protein, UniProt Q5FWF4 1-1079, looked up, variant R987A)
DNA annealing helicase and …: B1 DNA annealing helicase and … with R987A, A1036N
B5: K984A: ZRANB3 basic residues HNH mutant (protein, UniProt Q5FWF4 1-1079, looked up, variant K984A)
DNA annealing helicase and …: B1 DNA annealing helicase and … with K984A, A1036N
B6: T66A: cancer associated ZRANB3 mutant (protein, UniProt Q5FWF4 1-1079, looked up, variant T66A)
DNA annealing helicase and …: B1 DNA annealing helicase and … with T66A, A1036N
B7: K988A: ZRANB3 basic residues HNH mutant (protein, UniProt Q5FWF4 1-1079, looked up, variant K988A)
DNA annealing helicase and …: B1 DNA annealing helicase and … with K988A, A1036N
B8: H1015A: ZRANB3 HNH active site mutant (protein, UniProt Q5FWF4 1-1079, looked up, variant H1015A)
DNA annealing helicase and …: B1 DNA annealing helicase and … with H1015A, A1036N
B9: D1020Y: cancer associated ZRANB3 mutant (protein, UniProt Q5FWF4 1-1079, looked up, variant D1020Y)
DNA annealing helicase and …: B1 DNA annealing helicase and … with D1020Y, A1036N
B10: H1021A: ZRANB3 HNH active site mutant (protein, UniProt Q5FWF4 1-1079, looked up, variant H1021A)
DNA annealing helicase and …: B1 DNA annealing helicase and … with H1021A, A1036N
B11: H1045A: ZRANB3 HNH active site mutant (protein, UniProt Q5FWF4 1-1079, looked up, variant H1045A)
DNA annealing helicase and …: B1 DNA annealing helicase and … with A1036N, H1045A
B12: K1046A, R1048A: ZRANB3 double mutant in helix α8 (protein, UniProt Q5FWF4 1-1079, looked up, variant K1046A R1048A)
DNA annealing helicase and …: B1 DNA annealing helicase and … with A1036N, K1046A, R1048A
B13: R1009A: ZRANB3 basic residues HNH mutant (protein, UniProt Q5FWF4 1-1079, looked up, variant R1009A)
DNA annealing helicase and …: B1 DNA annealing helicase and … with R1009A, A1036N
B14: D1020A: ZRANB3 HNH active site mutant (protein, UniProt Q5FWF4 1-1079, looked up, variant D1020A)
DNA annealing helicase and …: B1 DNA annealing helicase and … with D1020A, A1036N

test system: not listed separately; test: NADH-coupled ATPase assay of ZRANB3 proteins; format: biochemical; conditions: 150 nM ZRANB3, 5 mM ATP, 0.5 μM flap DNA, 24 °C, A340 nm, average rates
Protocol: The NADH-coupled ATPase assay is based on a reaction in which the regeneration of hydrolysed ATP is coupled to the oxidation of NADH[59]. It was used as described, with minor modifications. ZRANB3 (150 nM) was added to a 150 μl reaction containing 25 mM Tris-Cl pH 7.5, 13 mM MgCl2, 1.8 mM DTT, 100 μg ml^−1 BSA, 3 mM phosphoenolpyruvate, 36 U ml^−1 pyruvate kinase, 20 U ml^−1 lactate dehydrogenase, 0.5 μM flap DNA, and 5 mM ATP, with 750 μM NADH added immediately before ZRANB3. Reactions were mixed for 1 min on a shaker at 23 °C and analysed by measuring A340 nm at 20 s intervals during 60 min, on a Spectramax 250 microplate spectrophotometer at 24 °C. Linear titration of freshly prepared NADH was performed to obtain a standard curve for units of absorbance mM^−1 NADH. ATPase rates were calculated from data collected between time points where product formation was linear with respect to time.

| Molecule | ATP hydrolysis rate [µmol/L/min] |
| --- | --- |
| B1 | 14.05 ± 2.46 |
| B2 | 15.12 ± 0.48 |
| B3 | 10.24 ± 1.15 |
| B4 | 6.34 ± 0.40 |
| B5 | 20.93 ± 2.01 |
| B6 | 0.45 ± 0.03 |
| B7 | 18.83 ± 1.94 |
| B8 | 18.67 ± 2.24 |
| B9 | 11.60 ± 3.30 |
| B10 | 18.59 ± 1.98 |
| B11 | 8.91 ± 0.66 |
| B12 | 19.38 ± 1.74 |
| B13 | 7.49 ± 2.57 |
| B14 | 12.94 ± 0.67 |

same assay, conditions: 150 nM ZRANB3, 5 mM ATP, 0.5 μM flap DNA, 24 °C, average rates

| Molecule | k [min⁻¹] |
| --- | --- |
| B1 | 93.71 ± 16.43 |
| B2 | 100.85 ± 3.22 |
| B3 | 68.26 ± 7.70 |
| B4 | 42.31 ± 2.70 |
| B5 | 139.56 ± 13.45 |
| B6 | 3.02 ± 0.21 |
| B7 | 125.55 ± 12.95 |
| B8 | 124.46 ± 14.96 |
| B9 | 77.36 ± 22.04 |
| B10 | 123.95 ± 13.19 |
| B11 | 59.42 ± 4.40 |
| B12 | 129.23 ± 11.62 |
| B13 | 49.94 ± 17.14 |
| B14 | 86.32 ± 4.49 |

test system: splayed DNA duplex; test: Nuclease assay with wild-type and mutant ZRANB3 proteins; format: biochemical; conditions: 200 nM nuclease, 10 nM fluorescently labelled DNA substrate, 2 mM ATP, 30 °C, 60 min, native PAGE (Fig. 3c)
Source text: Figure 3 Characterisation of the ZRANB3 HNH active site. (a) Overlay of the T4 endonuclease VII (yellow) and the ZRANB3 HNH (white) structures. […] (b) Overlay of the T4 endonuclease VII (yellow, labels in italics) and the ZRANB3 HNH (white) structures. Mg^2+ ion in T4 endonuclease is shown as a purple sphere. His1021, Asp1020 and His1045 in the HNH structure overlap with the active site residues of T4 endonuclease VII. (c) Nuclease assay with the wild-type and mutant ZRANB3 proteins in the presence and absence of ATP. Reactions were analysed by native poly-acrylamide gel electrophoresis. Indicated are mobilities of the fluorescently labelled DNA substrate and product. (d) Nuclease assay with non-hydrolysable ATP homologues. Shown are controls with the wild-type ZRANB3 and the ATPase dead K65R mutant in the presence of ATP.
Oligonucleotides used in the nuclease assays (5′-[…]-[…]-3′ and Cy3 5′-end-labelled 5′-[…]-[…]-3′) were incubated in 10 mM Tris-HCl pH 7.5, 50 mM NaCl for 3 min at 94 °C, after which the reactions were allowed to gradually cool down.
The nuclease assays with ZRANB3 was performed essentially as described in ref. [9]. Briefly, reaction mixtures containing the indicated nuclease (200 nM) and fluorescently labelled DNA substrate (10 nM) in 10 μl of reaction buffer (50 mM Tris-HCl; 50 mM NaCl; 5 mM MgCl2; 2 mM ATP (Sigma); pH 7.5) were incubated at 30 °C for 60 min. The reactions were stopped by incubation with 0.1% SDS and 4 mg ml^−1 of proteinase K at 30 °C for 45 min. The reactions were then mixed with sucrose (10% final concentration) and resolved in a 10% polyacrylamide gel in 0.5 × TBE buffer (45 mM Tris-borate, 1 mM EDTA; pH 7.5). The fluorescent DNA species were visualized and quantified using Pharos Mx imager and Quantity one software (BioRad).

| Molecule | ZRANB3 endonuclease activity of mutant protein |
| --- | --- |
| B1 | substantially reduced |
| B10 | completely abrogated |
| B11 | completely abrogated |
| B14 | completely abrogated |
